In patent US20230416362A1:

How the values were obtained:
[1] = target: mTIGIT (ELISA of Table 7) (mouse) (UniProt P86176); test: ELISA binding
[2] = target: mTIGIT (ELISA of Table 7) (mouse) (UniProt P86176); test: mTIGIT/mCD155 competition ELISA; competitor mCD155

mTIGIT (ELISA of Table 7) (mouse), sequence (P86176 29-145 limits assumed): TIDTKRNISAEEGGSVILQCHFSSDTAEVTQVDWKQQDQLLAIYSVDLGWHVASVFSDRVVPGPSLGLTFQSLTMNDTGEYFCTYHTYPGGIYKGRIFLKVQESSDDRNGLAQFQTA

EC50 [1]: 0.3 nM
IC50 [2]: 1.5 nM
Substance: 1G9 (Bio X Cell, #BE0150) (antibody)
